In US20100172907A1 (Hoffmann-La Roche, published 2010):
Positions count from the first letter of the chain named. Groups on a side chain read outwards from the residue. No end group written: not given here. NSMP = not defined here

B1: MS-Roche #3.2.H2 Fab (Fab, V domains shown)
VH: QVQLVESGGGLVQPGGSLRLSCAASGFTFSSYAMSWVRQAPGKGLEWVSAISQRGQFTYYADSVKGRFTISRDNSKNTLYLQMNSLRAEDTAVYYCARLTHYARYYRYFDVWGQGTLVTVSS
VL: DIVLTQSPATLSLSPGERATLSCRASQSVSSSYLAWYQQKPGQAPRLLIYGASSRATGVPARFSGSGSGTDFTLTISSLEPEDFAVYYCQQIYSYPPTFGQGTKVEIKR
B2: MS-Roche #3.3.H3 Fab (Fab, V domains shown)
VH: B1 VH with R54N, Q56F, F57H, T58I
VL: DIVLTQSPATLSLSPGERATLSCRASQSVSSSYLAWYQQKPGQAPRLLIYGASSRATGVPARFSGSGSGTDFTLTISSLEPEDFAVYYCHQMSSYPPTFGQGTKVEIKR
B3: MS-Roche #3.4.H1 Fab (Fab, V domains shown)
VH: B1 VH with Q53E, R54T, G55S, Q56I, F57R, T58K
VL: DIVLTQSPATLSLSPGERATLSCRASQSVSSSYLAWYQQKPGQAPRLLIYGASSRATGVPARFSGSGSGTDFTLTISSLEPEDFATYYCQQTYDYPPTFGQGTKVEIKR
B4: MS-Roche #3.4.H3 Fab (Fab, V domains shown)
VH: B1 VH with A50V, R54T, Q56R, F57K, T58I
VL: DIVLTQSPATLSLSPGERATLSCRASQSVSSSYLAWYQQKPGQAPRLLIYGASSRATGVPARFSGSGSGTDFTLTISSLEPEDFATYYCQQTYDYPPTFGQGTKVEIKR
B5: MS-Roche #3.4.L11 Fab (Fab, V domains shown)
VH: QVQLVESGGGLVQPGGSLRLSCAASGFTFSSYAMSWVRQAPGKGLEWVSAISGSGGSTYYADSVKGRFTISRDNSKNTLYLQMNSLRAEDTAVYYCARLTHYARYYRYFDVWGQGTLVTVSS
VL: DIVLTQSPATLSLSPGERATLSCRASQLVGRAYLAWYQQKPGQAPRLLIYGASSRATGVPARFSGSGSGTDFTLTISSLEPEDFATYYCQQTYDYPPTFGQGTKVEIKR
B6: MS-Roche #3.4.H5 Fab (Fab, V domains shown)
VH: B1 VH with A50V, R54V, Q56A, F57H, T58I
VL: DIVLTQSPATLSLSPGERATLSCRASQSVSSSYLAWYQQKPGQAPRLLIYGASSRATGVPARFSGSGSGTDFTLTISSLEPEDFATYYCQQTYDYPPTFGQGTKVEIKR
B7: MS-Roche #3.6.H1 Fab (Fab, V domains shown)
VH: B1 VH with A50V, Q53E, R54S, F57Y, T58K
VL: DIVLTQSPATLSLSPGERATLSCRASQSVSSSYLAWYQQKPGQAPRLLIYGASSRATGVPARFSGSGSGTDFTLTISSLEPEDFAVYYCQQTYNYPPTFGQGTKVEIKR
B8: MS-Roche #3.3.H1 Fab (Fab, V domains shown)
VH: B1 VH with A50V, Q53E, R54K, G55S, Q56R, T58I
VL: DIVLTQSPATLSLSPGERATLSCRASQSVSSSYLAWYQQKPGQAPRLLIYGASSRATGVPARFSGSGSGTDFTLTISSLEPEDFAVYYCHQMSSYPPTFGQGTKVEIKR
B9: MS-Roche #7.2.H2 Fab (Fab, V domains shown)
VH: QVQLVESGGGLVQPGGSLRLSCAASGFTFSSYAMSWVRQAPGKGLEWVSAINGTGMKKYYADSVKGRFTISRDNSKNTLYLQMNSLRAEDTAVYYCARGKGNTHKPYGYVRYFDVWGQGTLVTVSS
VL: B5 VL with L28S, G30S, R31S, A32S, T92I, D94S, Y95F, P97H
B10: MS-Roche #7.11 Fab (Fab, V domains shown)
VH: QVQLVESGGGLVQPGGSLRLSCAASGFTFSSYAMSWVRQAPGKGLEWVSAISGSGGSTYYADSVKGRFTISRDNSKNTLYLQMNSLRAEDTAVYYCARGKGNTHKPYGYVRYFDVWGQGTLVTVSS
VL: B5 VL with L28S, G30S, R31S, A32S, T92V, D94S, Y95P, P97H
B11: MS-Roche #7.9.H4 Fab (Fab, V domains shown)
VH: B9 VH with G53A, T54V, Y59F
VL: B5 VL with L28S, G30S, R31S, A32S, Q90L, T92I, D94N, Y95M, P97I
notes: assembled
B12: MS-Roche #7.2.H3 Fab (Fab, V domains shown)
VH: B9 VH with G53A, T54N, M56Y, K58T
VL: B5 VL with L28S, G30S, R31S, A32S, T92I, D94S, Y95F, P97H
B13: MS-Roche #7.4.H2 Fab (Fab, V domains shown)
VH: B9 VH with G53Y, T54N, M56A, K57R, K58I
VL: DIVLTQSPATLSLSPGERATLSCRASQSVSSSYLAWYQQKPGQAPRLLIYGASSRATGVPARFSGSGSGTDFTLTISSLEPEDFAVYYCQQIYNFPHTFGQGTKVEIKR
B14: MS-Roche #7.11.H1 Fab (Fab, V domains shown)
VH: B9 VH with A50G, G53A, T54A, M56F, K57R, K58T
VL: B5 VL with L28S, G30S, R31S, A32S, T92V, D94S, Y95P, P97H
B15: MS-Roche #7.9.H3 Fab (Fab, V domains shown)
VH: B9 VH with G53Y, T54Q, M56N, K57R
VL: B5 VL with L28S, G30S, R31S, A32S, Q90L, T92I, D94N, Y95M, P97I
notes: assembled
B16: MS-Roche #7.2.L1 Fab (Fab, V domains shown)
VH: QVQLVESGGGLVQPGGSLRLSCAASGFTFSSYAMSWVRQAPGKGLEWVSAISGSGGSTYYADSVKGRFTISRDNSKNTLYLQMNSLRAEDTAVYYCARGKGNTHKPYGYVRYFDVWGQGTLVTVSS
VL: B5 VL with L28Y, G30D, A32T, T92I, D94S, Y95F, P97H
B17: MS-Roche #7.11.H2 Fab (Fab, V domains shown)
VH: B9 VH with G53A, T54N, M56Y
VL: B5 VL with L28S, G30S, R31S, A32S, T92V, D94S, Y95P, P97H
B18: MS-Roche #7.2.H5 Fab (Fab, V domains shown)
VH: B9 VH with G53A, M56R, K57S
VL: B5 VL with L28S, G30S, R31S, A32S, T92I, D94S, Y95F, P97H
B19: MS-Roche #7.9.H2 Fab (Fab, V domains shown)
VH: B9 VH with G53A, T54D, M56N, K57R
VL: B5 VL with L28S, G30S, R31S, A32S, Q90L, T92I, D94N, Y95M, P97I
notes: assembled
B20: MS-Roche #7.2.H4 Fab (Fab, V domains shown)
VH: B9 VH with G53S, T54K, M56S, K57R, K58I
VL: B5 VL with L28S, G30S, R31S, A32S, T92I, D94S, Y95F, P97H

Biological target: T1, BSA-conjugated Aβ heptapeptide AEFRHDC (C-terminal Cys coupled to NSMP-activated BSA)
T1 construct: also called Peptide 2-7
T1 peptide: AEFRHDC
Test: ELISA
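Wherever OD ratio 17-22/BSA is given: ELISA of antibody at 10 or 2 µg/ml binding plate-coated BSA–peptide conjugates, detected with HRP anti-human Ig and TMB colour, mock-treated BSA without peptide as negative control.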
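Wherever OD ratio 18-23/BSA is given: ELISA of antibody at 10 or 2 µg/ml binding plate-coated BSA–peptide conjugates, detected with HRP anti-human Ig and TMB colour, mock-treated BSA without peptide as negative control.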
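Wherever OD ratio 2-7/BSA is given: ELISA of antibody at 10 or 2 µg/ml binding plate-coated BSA–peptide conjugates, detected with HRP anti-human Ig and TMB colour, mock-treated BSA without peptide as negative control.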
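Wherever Peptide-ratio 17-22/2-7 is given: ELISA of antibody at 10 or 2 µg/ml binding plate-coated BSA–peptide conjugates, detected with HRP anti-human Ig and TMB colour, mock-treated BSA without peptide as negative control.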

Binder	OD ratio 2-7/BSA
B1	26
B2	31
B3	27
B4	22
B5	31
B6	28
B7	23
B8	23
B9	16
B10	37
B11	30
B12	33
B13	36
B14	31
B15	35
B16	24
B17	34
B18	30
B19	35
B20	23

Biological target: T2, BSA-conjugated Aβ heptapeptide LVFFAEC (reading uncertain; also: BSA conjugate)
T2 construct: also called Peptide 17-22
T2 peptide: LVFFAEC([NSMP-BSA])
Test: ELISA

Binder	OD ratio 17-22/BSA	Peptide-ratio 17-22/2-7
B1	12	0.46
B2	2	0.06
B3	2	0.07
B4	9	0.41
B5	6	0.19
B6	5	0.18
B7	3	0.13
B8	4	0.17
B9	10	0.63
B10	11	0.3
B11	10	0.32
B12	17	0.52
B13	17	0.47
B14	8	0.25
B15	11	0.31
B16	14	0.57
B17	10	0.29
B18	13	0.43
B19	3	0.08
B20	12	0.52

Biological target: T3, BSA-conjugated Aβ heptapeptide VFFAEDC (C-terminal Cys coupled to NSMP-activated BSA)
T3 construct: also called Peptide 18-23
T3 peptide: VFFAEDC
Test: ELISA

Binder	OD ratio 18-23/BSA	Peptide-ratio 18-23/2-7
B1	23	0.88
B2	5	0.16
B3	8	0.3
B4	17	0.77
B5	20	0.65
B6	13	0.46
B7	13	0.57
B8	12	0.52
B9	10	0.63
B10	15	0.41
B11	15	0.49
B12	20	0.61
B13	20	0.56
B14	9	0.29
B15	20	0.57
B16	16	0.68
B17	12	0.36
B18	18	0.6
B19	6	0.16
B20	13	0.57

Biological target: T4, BSA-conjugated Aβ heptapeptide FFAEDVC (C-terminal Cys coupled to NSMP-activated BSA)
T4 construct: also called Peptide 19-24
T4 peptide: FFAEDVC
Test: ELISA

Binder	OD ratio 19-24/BSA	Peptide-ratio 19-24/2-7
B1	20	0.77
B2	2	0.06
B3	2	0.07
B4	11	0.5
B5	5	0.16
B6	4	0.14
B7	5	0.22
B8	8	0.35
B9	10	0.63
B10	9	0.24
B11	7	0.22
B12	18	0.55
B13	16	0.46
B14	8	0.25
B15	9	0.27
B16	11	0.45
B17	14	0.41
B18	15	0.5
B19	8	0.23
B20	12	0.52

biological target: T5, human Aβ (1-40) peptide (human); test: SPR, immobilized fibers;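 further: biacore SPR using in vitro grown Aβ1-40 or Aβ1-42 fibrils immobilized on the chip with Fab analytes, KD from koff/kon fits or equilibrium isotherms based on total Fab concentration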
T5 construct: also called Aβ1-40 fibers
Method: (§1) Biacore2000 and Biacore3000 instruments were used for these measurements. Aβ1-40 and Aβ1-42 fibers were generated in vitro by incubation of synthetic peptides at a concentration of 200 μg/ml in 10 mM Na-acetate buffer (pH 4.0) for three days at 37° C. […] For binders with slow kinetics KD values were calculated by curve fitting of the time-dependent sensor responses, i.e. from the ratio of koff/kₒₙ. Binders with fast kinetics were analyzed by fitting the concentration-dependent sensor responses at equilibrium (adsorption-isotherms). KD values were calculated from the Biacore sensograms based on the total Fab concentration as determined by a protein assay. […] Briefly, time-dependent protein binding to Aβ1-40 fibers immobilized on the Biacore chip was measured during the association phase under mass-limited conditions at different flow rates of the analyte solution.

Binder	Kd
B1	5.2 nM
B2	1.4 nM
B3	13.5 nM
B4	6.7 nM
B5	5.3 nM
B6	26.5 nM
B7	18.9 nM
B8	17.1 nM
B9	8.2 nM
B10	22 nM
B11	4.8 nM
B12	45.4 nM
B13	9.9 nM
B14	12.7 nM
B15	4.2 nM
B16	13.3 nM
B17	0.3 nM
B18	8 nM
B19	5 nM
B20	5.9 nM

biological target: T6, Aβ (1-42) peptide (human); test: SPR, immobilized fibers;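 further: biacore SPR using in vitro grown Aβ1-40 or Aβ1-42 fibrils immobilized on the chip with Fab analytes, KD from koff/kon fits or equilibrium isotherms based on total Fab concentration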
T6 construct: also called Aβ1-42 fibers; Aβ4
Method: as §1

Binder	Kd
B1	1.1 nM
B2	3.3 nM
B3	14 nM
B4	8.4 nM
B5	2.6 nM
B6	36 nM
B7	23.1 nM
B8	19.4 nM
B9	8.2 nM
B10	74 nM
B11	4.2 nM
B12	5.3 nM
B13	6.2 nM
B14	6.7 nM
B15	2.8 nM
B16	12.7 nM
B17	0.3 nM
B18	10.1 nM
B19	5.7 nM
B20	5 nM
